Results as given in patent US20250221923A1, “BOOSTING OSMOTIC BLOOD-ORGAN BARRIER OPENING FOR IMPROVED DELIVERY OF THERAPEUTICS TO ORGANS” (priority 2024, published 2025).

Experiments:
[1] = tested on: brain hemispheres and organs; experiment: Ex vivo biodistribution of ^89Zr-BVDFO after OBBBO (Example 1); parameters: species or system mice; conditions: mouse
Protocol: On completion of PET/CT after infusion of ^89Zr-BVDFO, the mice were euthanized and left and right brain hemispheres, heart, lungs, liver, spleen, kidneys, and blood were harvested, weighed using Mettler Toledo […] Balance and radioactivity of each was measured using CRC®[…] Dose Calibrator and Well Counter, Mirion Technologies. To calculate the percentage injected dose per […] of tissue (% ID/g), first, the radioactivity present in the syringe after injection was measured and subtracted from initial measurement before injection to calculate the total injected dose. Then, the percentage of each organ's radioactivity measurement relative to the total injected dose was calculated and divided by the weight of the organ. The biodistribution data shown are mean % ID/g+SE.

brain hemispheres [2] = tested on: brain hemispheres; parameters: species or system mice; conditions: mouse
Protocol: A catheter was placed into the right internal carotid artery (ICA) in 14 male C57BL6 mice for intra-arterial (IA) injections. […] To confirm OBBBO, Gadolinium-enhanced T1 MRI was conducted, and safety was confirmed through subsequent serial MRI over 1-2 weeks.

head and neck region = tested on: head and neck region; parameters: species or system mice; conditions: mouse, in vivo
Protocol: Radiolabeled bevacizumab (Zr 89-bevacizumab) was administered via both IA and IV routes. […] Ex vivo measurements of drug biodistribution across various organs further corroborated these findings, quantifying radioactivity in specific tissues such as the skin, salivary glands, tongue, and jaw muscle (FIG. 7e). The method comprised pretreatment with composition comprising a hyperosmotic agent, stopping the pretreatment administration, and then administrating the radiolabeled bevacizumab. Without being bound by theory, it is believed that to enhance drug delivery, the pretreatment with the hyperosmotic agent would extract water from the tissue (local dehydration), followed by rapid rehydration upon cessation of the hyperosmotic infusion. This process was expected to improve the transition of the intra-arterially administered drug from the vascular compartment to the parenchymal tissues, thereby increasing drug accumulation in the targeted areas.

brain = conditions: mouse, in vivo
Text: In experiment 2, IA injections of antibodies suspended in 0.9% NaCl were comparted to IA injections of antibodies suspended in serum. PET imaging and post-mortem antibody biodistribution were used as outcome measures.

brain hemispheres [3] = conditions: mouse, in vivo
Protocol: Then, monoclonal antibody (mAb) bevacizumab was conjugated to deferoxamine (DFO) and the conjugate was radiolabeled with zirconium-89 (^89Zr). OBBBO was performed using 25% mannitol or 4% NaCl in 25% mannitol, followed by intraarterial (IA) injection of the radiolabeled mAb and positron-emission tomography (PET) imaging to assess the distribution of the mAb. The percentages of injected dose per cubic centimeter of tissue (% ID/g) and standardized uptake values (SUV) were calculated for selected organs and regions.
Approximately 7.5 MBq (˜202 μCi) of ^89Zr-BVDFO reconstituted in 0.2 mL of saline was infused intraarterially at a speed of 0.15 mL/min and each animal was transferred to the PET/CT scanner. […] Regions of interest (ROIs), including right and left brain hemispheres, heart, lungs, and liver, were demarcated in the axial plane, and standardized uptake values (SUV) were calculated using the Fiji ImageJ PET/CT plugin.
Linear mixed modeling with restricted maximum likelihood (REML) method was performed using ‘Imer’ package, with % ID/g or SUVmean or SUVmax as a dependent variable, organs and BBBO type as fixed effects and mouse ID as a random effect. Estimated marginal means were calculated using ‘emmeans’ package for organ and BBBO interactions, and p-values for pairwise comparisons were extracted.

With “^89Zr-BVDFO: monoclonal antibody bevacizumab (Avastin) conjugated to deferoxamine (DFO) and radiolabeled with zirconium-89” the “uptake in the blood, lungs, spleen, liver, and kidneys” value [1] was “high uptake”, the “ex vivo biodistribution, accumulation in the ipsilateral hemisphere” value (brain hemispheres [2]) was “confirmed by ex vivo biodistribution” and the “standardized uptake values (SUV), accumulation in the ipsilateral hemisphere” value (brain hemispheres [2]; in vivo) was “substantial accumulation”. The “antibody uptake in the head and neck region, IA compared to IV” value (head and neck region) was “significantly higher”, the “CNS penetration, antibodies suspended in 0.9% NaCl vs suspended in serum” value (brain) was “much higher” and the “antibody penetration to the brain, IA vs IV” value (brain; iv) was “much higher”. The “accumulation of radioactivity in the ipsilateral hemisphere” value (brain hemispheres [3]) was “substantial accumulation”.
